Experiment [1] concerns the target recombinant FIPV-UU4 S protein (ectodomain of the spike protein of serotype I feline infectious peritonitis virus strain UU4, fused with the trimerization domain of T4 fibritin) (feline infectious peritonitis virus, serotype I, strain UU4 | bacteriophage T4). As to the kind of experiment: cryo-EM structure.
Experiment [2] shares this target. As to the kind of experiment: native gel or EMSA. (In general: A gel shift assay detects complexes by their altered migration in electrophoresis.)

This is an account of results in publication PMC6983407.

With “recombinant FIPV-UU4 S protein (ectodomain of the spike protein of serotype I feline infectious peritonitis virus strain UU4, fused with the trimerization domain of T4 fibritin) (natural protein)”, the stoichiometry N in experiment [1] and in experiment [2] was 3 each time.

For orientation: stoichiometry N means a count of units in the complex or per binding partner.
